# Patent US9976134B2, “Thermolysin variants” (Danisco US Inc., priority 2007, dated 2018)
# Positions count from the first letter of the chain named. Names and notes keep the numbering of the source.
# B1: I156E: single-substitution thermolysin variant (SEQ ID NO:3 numbering) (protein, listed as Geobacillus caldoproteolyticus)
# chain: ITGTSTVGVGRGVLGDQKNINTTYSTYYYLQDNTRGNGIFTYDAKYRTTLPGSLWADADNQFFASYDAPAVDAHYYAGVTYDYYKNVHNRLSYDGNNAAIRSSVHYSQGYNNAFWNGSQMVYGDGDGQTFIPLSGGIDVVAHELTHAVTDYTAGLEYQNESGAINEAISDIFGTLVEFYANKNPDWEIGEDVYTPGISGDSLRSMSDPAKYGDPDHYSKRYTGTQDNGGVHINSGIINKAAYLISQGGTHYGVSVVGIGRDKLGKIFYRALTQYLTPTSNFSQLRAAAVQSATDLYGSTSQEVASVKQAFDAVGVK
# B2: T049S: single-substitution thermolysin variant (SEQ ID NO:3 numbering) (protein, listed as Geobacillus caldoproteolyticus)
# chain: B1 chain with T49S, E156I
# B3: A056C: single-substitution thermolysin variant (SEQ ID NO:3 numbering) (protein, listed as Geobacillus caldoproteolyticus)
# chain: B1 chain with A56C, E156I
# B4: S065C: single-substitution thermolysin variant (SEQ ID NO:3 numbering) (protein, listed as Geobacillus caldoproteolyticus)
# chain: B1 chain with S65C, E156I
# B5: S065E: single-substitution thermolysin variant (SEQ ID NO:3 numbering) (protein, listed as Geobacillus caldoproteolyticus)
# chain: B1 chain with S65E, E156I
# B6: S065V: single-substitution thermolysin variant (SEQ ID NO:3 numbering) (protein, listed as Geobacillus caldoproteolyticus)
# chain: B1 chain with S65V, E156I
# B7: Q128C: single-substitution thermolysin variant (SEQ ID NO:3 numbering) (protein, listed as Geobacillus caldoproteolyticus)
# chain: B1 chain with Q128C, E156I
# B8: Q128T: single-substitution thermolysin variant (SEQ ID NO:3 numbering) (protein, listed as Geobacillus caldoproteolyticus)
# chain: B1 chain with Q128T, E156I
# B9: Y151A: single-substitution thermolysin variant (SEQ ID NO:3 numbering) (protein, listed as Geobacillus caldoproteolyticus)
# chain: B1 chain with Y151A, E156I
# B10: Y151C: single-substitution thermolysin variant (SEQ ID NO:3 numbering) (protein, listed as Geobacillus caldoproteolyticus)
# chain: B1 chain with Y151C, E156I
# B11: T006A: single-substitution thermolysin variant (SEQ ID NO:3 numbering) (protein, listed as Geobacillus caldoproteolyticus)
# chain: B1 chain with T6A, E156I
# B12: T006C: single-substitution thermolysin variant (SEQ ID NO:3 numbering) (protein, listed as Geobacillus caldoproteolyticus)
# chain: B1 chain with T6C, E156I
# B13: T049D: single-substitution thermolysin variant (SEQ ID NO:3 numbering) (protein, listed as Geobacillus caldoproteolyticus)
# chain: B1 chain with T49D, E156I
# B14: Y151S: single-substitution thermolysin variant (SEQ ID NO:3 numbering) (protein, listed as Geobacillus caldoproteolyticus)
# chain: B1 chain with Y151S, E156I
# B15: A056E: single-substitution thermolysin variant (SEQ ID NO:3 numbering) (protein, listed as Geobacillus caldoproteolyticus)
# chain: B1 chain with A56E, E156I
# B16: A058C: single-substitution thermolysin variant (SEQ ID NO:3 numbering) (protein, listed as Geobacillus caldoproteolyticus)
# chain: B1 chain with A58C, E156I
# B17: A058E: single-substitution thermolysin variant (SEQ ID NO:3 numbering) (protein, listed as Geobacillus caldoproteolyticus)
# chain: B1 chain with A58E, E156I
# B18: Q061E: single-substitution thermolysin variant (SEQ ID NO:3 numbering) (protein, listed as Geobacillus caldoproteolyticus)
# chain: B1 chain with Q61E, E156I
# B19: Q061M: single-substitution thermolysin variant (SEQ ID NO:3 numbering) (protein, listed as Geobacillus caldoproteolyticus)
# chain: B1 chain with Q61M, E156I
# B20: S065D: single-substitution thermolysin variant (SEQ ID NO:3 numbering) (protein, listed as Geobacillus caldoproteolyticus)
# chain: B1 chain with S65D, E156I
# B21: S065P: single-substitution thermolysin variant (SEQ ID NO:3 numbering) (protein, listed as Geobacillus caldoproteolyticus)
# chain: B1 chain with S65P, E156I
# B22: S065W: single-substitution thermolysin variant (SEQ ID NO:3 numbering) (protein, listed as Geobacillus caldoproteolyticus)
# chain: B1 chain with S65W, E156I
# Assay: Stability assay in 25% TIDE 2X detergent with DTPA (residual Abz-AGLA-Nba protease activity)
# Assay type: physicochemical
# Details: 60 min at 32°C; variant residual AGLA activity divided by wild-type residual activity
# Experimental: (§1) The stability of thermolysin and variants thereof was measured after incubation under defined conditions in the presence of 25% TIDE® 2× detergent. The initial and residual activity was determined.
# (§2) MTPs were obtained from Costar (type 9017) and from Greiner (black plate, type 655076). Test Method Unstressed Conditions:
# (§3) First, 20 μl thermolysin containing culture supernatant was diluted with 180 μl MES assay buffer. Then, 20 μl diluted supernatant was diluted further with 180 μl MES assay buffer. Subsequently 10 μl of this dilution was transferred into 190 μl AGLA-substrate solution in a pre-warmed plate (Greiner 655076) at 25° C. Any air bubbles present were blown away and the plate was measured according to the AGLA protease assay protocol described below.
# (§4) First, 20 μl of culture supernatant was diluted with 180 μl 27.5% TIDE®+detergent solution and placed in the iEMS shaker. The plate covered with a plate seal was incubated for a total of 60 minutes at 32° C. at 900 rpm. In addition, 20 μl of culture supernatant was diluted with 180 μl 27.5% TIDE®−solution and placed in the iEMS shaker. This plate covered with a plate seal was incubated for a total of 180 minutes at 50° C. at 900 rpm.
# (§5) Subsequently after the respective incubations, 20 μl of either of these solutions were diluted with 180 μl MES assay buffer and 10 μl of this dilution were diluted with 190 μl AGLA-substrate solution in a pre-warmed plate (Greiner 655076) at 25° C.
# (§6) Fluorescence measurements were taken at excitation of 350 nm and emission of 420 nm. The spectrofluorometer software calculated the reaction rates (=slope) of the increase in fluorescence for each well to a linearly regressed line of (milli-) RFU/min. The ratio of the residual and initial AGLA activity was used to express the 25% TIDE® 2× stability as follows: Percentage of residual activity=[slope of stressed]*100/[slope of unstressed]
# (§7) For each sample (thermolysin and variants thereof) the performance index was calculated by dividing the residual activity of the variant by the residual activity of thermolysin. The performance index compared the stability of the variant and the standard thermolysin enzyme (e.g., wild type or parental enzyme), determined under the same conditions.
# (§8) In these experiments, the liberation of Abz-AG by protease cleavage of Abz-AGLA-Nba was monitored by fluorescence spectrometry (Ex. 350/Em. 420). The rate of appearance of Abz-AG was a measure of proteolytic activity.
# (§9) The Abz-AGLA-Nba assay solution was prepared by adding 1 ml of the Abz-AGLA-Nba stock to 19 ml MES substrate buffer and mixed well for at least 2 minutes. Subsequently the thermolysin or variants thereof containing culture supernatants were diluted with MES assay buffer to a concentration of 1-6 μg protein per ml.
# (§10) The assay was performed by adding 10 μl of diluted protease solution to each well, followed by the addition of 190 μl Abz-AGLA-Nba assay solution that was pre-equilibrated for at least 15 minutes at 25° C. The solutions were vigorously mixed, and the liberation of Abz-AG by protease cleavage of Abz-AGLA-Nba was monitored by fluorescence spectrometry at 25° C. in kinetic mode with excitation set at 350 nm and emission set at 420 nm. The rate of appearance of Abz-AG was a measure of proteolytic activity in the samples. The protease activity was expressed as RFU (relative fluorescence units·min^−1).
# (§11) As described in Example 1, the stability of thermolysin variants was measured by determining the AGLA activity before and after incubation in the presence of TIDE® 2× heavy duty liquid (HDL) detergent at an elevated temperature. The tables contain the relative stability values compared to wild-type thermolysin, which is the quotient of the variant residual activity divided by the wild-type residual activity. A value greater than one indicates higher stability in the presence of detergent. […]
row,Molecule,"PI (relative stability), 25% TIDE 2X with DTPA"
1,B1,1.58
2,B2,1.08
3,B3,1.01
4,B4,1.05
5,B5,1.08
6,B6,1.08
7,B7,1.01
8,B8,1.18
9,B9,1.15
10,B10,1.25
11,B11,1.01
12,B12,1.03
13,B13,1.05
14,B14,1.23

# Assay: Stability assay in 25% TIDE 2X detergent without DTPA (residual Abz-AGLA-Nba protease activity)
# Assay type: physicochemical
# Details: 180 min at 50°C; variant residual AGLA activity divided by wild-type residual activity
# Experimental: as §1, §2, §3, §4, §5, §6, §7, §8, §9, §10, §11
row,Molecule,"PI (relative stability), 25% TIDE 2X without DTPA"
1,B1,1.09
2,B2,1.26
3,B3,1.19
4,B4,1.14
5,B5,1.34
6,B6,1.08
7,B7,1.05
8,B8,1.15
9,B9,1.24
10,B10,1.09
11,B12,1.07
12,B13,1.28
13,B14,1.17
14,B15,1.07
15,B16,1.01
16,B17,1.24
17,B18,1.05
18,B19,1.01
19,B20,1.20
20,B21,1.18
21,B22,1.09
